From patent publication US20030059862A1 (Human Genome Sciences, published 2003)

B1: APRIL (Tumor Necrosis Factor Delta), human (ligand)
chain: AVLTQKQKKQHSVLHLVPINATSKDDSDVTEVMWQPALRRGRGLQAQGYGVRIQDAGVYLLYSQVLFQDVTFTMGQVVSREGQGRQETLFRCIRSMPSHPDRAYNSCYSAGVFHLHQGDILSVIIPRARAKLNLSPHGTFLGFVKL
notes: Soluble purified APRIL and FLAG-tagged APRIL were used in the selections; also called TNF-delta; human APRIL

How the values were obtained:
[1] = target: T1, BCMA fusion protein (Homo sapiens (Human), UniProt Q02223 1-48); assay: Unlabelled APRIL titrated against 5 ng/ml bio-APRIL for binding to coated BCMA fusion protein, streptavidin-DELFIA
T1 construct: also called immobilized receptor
T1 chain: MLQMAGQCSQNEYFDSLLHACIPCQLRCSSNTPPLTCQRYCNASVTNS
Description: (§1) APRIL binds to BCMA with higher affinity than its binds to TACI so, inhibition of biotinylated APRIL (bio-APRIL) binding to BCMA can be used to screen selection outputs as periplasmic extracts for neutralizers and then assess potency of the positives as purified scFvs. To perform this assay, each well of a black 96 well flat-bottomed plate (Costar) was coated with 1.25 ng BCMA fusion protein overnight at 4° C. The wells were blocked with 3% milk in PBS for an hour at room temperature. ScFv were then added in the presence of 5 ng/ml biotinylated APRIL for 90 minutes at room temperature. Binding of biotinylated APRIL was detected via streptavidin Delfia (Wallac) added at a 1:1000 dilution in Delfia assay buffer (Wallac). After an hour at room temperature this was read on a Wallac 1420 workstation at 620 nm.

[2] = target: T2, TACI fusion protein (Homo sapiens (Human), UniProt O14836 1-154); assay: Unlabelled APRIL titrated against 50 ng/ml bio-APRIL for binding to coated TACI fusion protein, streptavidin-DELFIA; inhibition was only partial
T2 construct: also called immobilized receptor
T2 sequence: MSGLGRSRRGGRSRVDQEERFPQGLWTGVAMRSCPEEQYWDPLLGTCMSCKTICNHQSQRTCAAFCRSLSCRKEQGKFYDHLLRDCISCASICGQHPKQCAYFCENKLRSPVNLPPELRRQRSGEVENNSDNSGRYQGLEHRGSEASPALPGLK
Description: as §1
(§2) An assay similar to that described above can also be used to test if anti-APRIL antibodies of the invention are able to inhibit binding of bio-APRIL to TACI. In this case, the plate was coated with 2.5 ng TACI fusion protein per well and scFv were added in the presence of 50 ng/ml biotinylated APRIL instead of 5 ng/ml. Otherwise, the method was identical to that for the BCMA:bio-APRIL assay.

[3] = target: T1, BCMA fusion protein; assay: receptor binding inhibition assay: unlabelled APRIL titrated against bio-APRIL (5 ng/ml, the competitor) for binding to plate-coated BCMA fusion protein; streptavidin Delfia, fluorescence counts
Description: as §1

[4] = target: T2, TACI fusion protein; assay: receptor binding inhibition assay: unlabelled APRIL titrated against bio-APRIL (50 ng/ml, the competitor) for binding to plate-coated TACI fusion protein; streptavidin Delfia, fluorescence counts
Description: as §1, §2

[5] = target: T3, BCMA (Homo sapiens (Human), UniProt Q02223 1-48, limits assumed); assay: Specificity phage ELISA (scFv on phage, anti-M13-HRP, A450)
T3 chain: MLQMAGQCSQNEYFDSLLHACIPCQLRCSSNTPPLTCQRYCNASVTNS
Description: (§3) Flexible 96-well plates (Falcon) were coated overnight at 4° C. with each antigen (1 μg/ml). All antigens were coated in PBS. After coating, the solutions were removed from the wells, and the plates were blocked for 1 hour at room temperature in MPBS. The plates were washed 3 times with PBS and then 50 μl of pre-blocked phage was added to each well. The plates were incubated at room temperature for 1 hour and then washed with 3 changes of PBST followed by 3 changes of PBS.
(§4) To each well, 50 μl of an anti-M13-HRP conjugate (Pharmacia) at a 1 in 5000 dilution in MPBS was added and the plates incubated at room temperature for 1 hour. Each plate was washed three times with PBST followed by three times with PBS.
(§5) Fifty μl of TMB substrate was then added to each well, and incubated at room temperature for 30 minutes or until color development. The reaction was stopped by the addition of 25 μl of 0.5 M H₂SO₄. The signal generated was measured by reading the absorbance at 450 nm (A₄₅₀) using a microtitre plate reader (Bio-Rad 3550).

[6] = target: T4, TACI (Homo sapiens (Human), UniProt O14836 1-154, limits assumed); assay: as above
T4 sequence: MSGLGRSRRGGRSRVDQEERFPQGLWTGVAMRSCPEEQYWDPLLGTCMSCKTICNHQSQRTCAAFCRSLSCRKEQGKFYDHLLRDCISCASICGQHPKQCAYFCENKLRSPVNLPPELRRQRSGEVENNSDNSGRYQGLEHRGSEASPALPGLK
Description: as §3, §4, §5

[7] = target: T5, BLyS (Homo sapiens (Human), UniProt Q9Y275 134-285); assay: as above
T5 construct: also called Neutrokine-alpha
Description: as §3, §4, §5

[8] = target: T6, LIGHT (Homo sapiens (Human), UniProt O43557 83-240, limits assumed); assay: as above
T6 chain: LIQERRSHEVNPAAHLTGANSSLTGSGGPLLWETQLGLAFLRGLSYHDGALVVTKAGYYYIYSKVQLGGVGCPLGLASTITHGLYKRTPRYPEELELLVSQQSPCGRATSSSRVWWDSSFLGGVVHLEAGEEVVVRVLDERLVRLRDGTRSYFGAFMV
Description: as §3, §4, §5

[9] = target: T7, TNF-α (Homo sapiens (Human), UniProt P01375 77-233); assay: as above
T7 construct: also called TNF-alpha
Description: as §3, §4, §5

[10] = target: T8, BSA (UniProt P02769 25-607); assay: as above
T8 construct: Unrelated control antigen coated at 1 µg/ml in the phage ELISAs
Description: as §3, §4, §5

[11] = target: T9, biotinylated APRIL (Homo sapiens (Human), UniProt O75888 105-250, biotinylated using NHS-biotin at a molar ratio of 20:1 biotin:APRIL); assay: scFv inhibition of bio-APRIL (5 ng/ml) binding to coated BCMA fusion protein, streptavidin-DELFIA
T9 construct: also called bio-APRIL
T9 sequence: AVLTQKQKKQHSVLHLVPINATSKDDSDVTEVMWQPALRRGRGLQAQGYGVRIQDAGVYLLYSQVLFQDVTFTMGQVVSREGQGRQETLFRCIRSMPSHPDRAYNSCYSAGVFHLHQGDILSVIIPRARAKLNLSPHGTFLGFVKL
Description: as §1

[12] = target: T9, biotinylated APRIL; assay: scFv inhibition of bio-APRIL (50 ng/ml) binding to coated TACI fusion protein, streptavidin-DELFIA
Description: as §1, §2

[13] = target: T9, biotinylated APRIL; assay: receptor binding inhibition assay: scFv titrated with bio-APRIL (5 ng/ml); blocked binding of bio-APRIL to plate-coated BCMA fusion protein; streptavidin Delfia, fluorescence counts
Description: as §1

[14] = target: T9, biotinylated APRIL; assay: receptor binding inhibition assay: scFv titrated with bio-APRIL (50 ng/ml); blocked binding of bio-APRIL to plate-coated TACI fusion protein; streptavidin Delfia, fluorescence counts
Description: as §1, §2

[15] = target: T9, biotinylated APRIL; assay: scFv inhibition of bio-APRIL (5 ng/ml) binding to coated BCMA fusion protein, streptavidin-DELFIA; partial inhibition; unit cell reads 'nM (3)'
Description: as §1

[16] = target: T9, biotinylated APRIL; assay: scFv inhibition of bio-APRIL (50 ng/ml) binding to coated TACI fusion protein, streptavidin-DELFIA; partial inhibition; unit cell reads 'nM (1)'
Description: as §1, §2

[17] = target: B1; assay: Title of Table 1; scFv identified by phage display selection and phage ELISA (Example 1)

T8 sequence (P02769 25-607 limits assumed): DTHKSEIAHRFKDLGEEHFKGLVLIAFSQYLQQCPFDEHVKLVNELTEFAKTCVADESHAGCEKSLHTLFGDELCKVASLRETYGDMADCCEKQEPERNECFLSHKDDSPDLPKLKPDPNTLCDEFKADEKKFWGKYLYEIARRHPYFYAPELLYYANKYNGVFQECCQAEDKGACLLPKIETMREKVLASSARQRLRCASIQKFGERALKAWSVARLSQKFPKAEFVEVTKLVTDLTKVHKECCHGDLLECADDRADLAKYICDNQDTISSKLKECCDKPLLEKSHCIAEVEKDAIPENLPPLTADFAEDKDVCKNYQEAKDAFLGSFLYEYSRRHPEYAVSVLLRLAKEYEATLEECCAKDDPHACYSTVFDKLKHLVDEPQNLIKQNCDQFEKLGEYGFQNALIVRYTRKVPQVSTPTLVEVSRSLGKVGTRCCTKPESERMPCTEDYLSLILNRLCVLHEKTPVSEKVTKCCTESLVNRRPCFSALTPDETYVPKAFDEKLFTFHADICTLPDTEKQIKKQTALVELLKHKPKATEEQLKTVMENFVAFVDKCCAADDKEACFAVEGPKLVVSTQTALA
T7 sequence (P01375 77-233 limits assumed): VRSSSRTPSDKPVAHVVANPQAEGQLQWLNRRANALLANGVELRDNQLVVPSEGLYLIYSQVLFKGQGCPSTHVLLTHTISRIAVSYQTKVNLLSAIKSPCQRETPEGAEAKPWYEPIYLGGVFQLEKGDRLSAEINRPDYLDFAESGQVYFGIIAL
T5 sequence (Q9Y275 134-285 limits assumed): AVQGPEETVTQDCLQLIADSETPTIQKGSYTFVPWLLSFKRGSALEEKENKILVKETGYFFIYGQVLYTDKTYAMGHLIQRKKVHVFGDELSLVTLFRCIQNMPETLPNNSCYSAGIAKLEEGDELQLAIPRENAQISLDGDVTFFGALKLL

**Q.** With B1 as the binder, how does the IC50 [1] read?
**A.** Its IC50 is 0.048 nM.

**Q.** And the IC50 [2]?
**A.** Its IC50 is 1.3 nM.

**Q.** And the IC50 [3]?
**A.** Its IC50 is 0.043 nM.

**Q.** What about the IC50 [4] of the same binder?
**A.** Its IC50 is 0.165 nM.

B2: A019C11 (scFv)
scFv: EVQLVQSGAEVKKPGASVKVSCKTSGYTFTDNYMHWVRQAPGQGLEWMGWISPNSSTTLYAQKFRGRVTLTRDTSVSTAYMELSGLDSDDTALYFCARGGRLAGSTVFTPAFEYWGRGTMVTVSSGGGGSGGGGSGGGGSAQAVLTQPSSVSEAPRQRVTISCSGSSSNIGNNAVKWYQQLPGKAPKLLIYYDDLLPSGVSDRFSGSKSGTSASLAISGLQSEDEADYYCAAWDDSLNGYVFGTGTKVTVLG
**Q.** Does B2 bind [5]?
**A.** Result: no binding (tested: antigen coated at 1 µg/ml)

**Q.** Does B2 bind [6]?
**A.** Result: no binding (tested: antigen coated at 1 µg/ml)

**Q.** Does B2 bind [7]?
**A.** Result: no binding (tested: antigen coated at 1 µg/ml)

**Q.** Does B2 bind [8]?
**A.** Result: no binding (tested: antigen coated at 1 µg/ml)

**Q.** Does B2 bind [9]?
**A.** Result: no binding (tested: antigen coated at 1 µg/ml)

**Q.** Does B2 bind [10]?
**A.** Result: no binding (tested: antigen coated at 1 µg/ml)

**Q.** What about the IC50 [11] of the same binder?
**A.** Its IC50 is 4.3 nM.

**Q.** And the IC50 [12]?
**A.** The IC50 was 10 nM.

**Q.** And the IC50 [13]?
**A.** Its IC50 is 10 nM.

**Q.** What about the IC50 [14] of the same binder?
**A.** Its IC50 is 7 nM.

B3: A024G01 (scFv)
scFv: EVQLVQSGAEVKKPGSSVKVSCKASGGTLSSDSITWVRQAPGQGLEWVGGLIPALGTANYAQKFQGRVTMTADRSTGTAYMELRSLKFDDTAVYYCARVSRTSYYDVLTDNNRYSYYMDVWGKGTLVTVSSGGGGSGGGGSGGGGSAHVILTQPPSVSVSPTQTATITCSGDHLGRKSLSWYQQKPGQSPVLVIYEDFKRPSGIPERFSASNSGYTATLTISGTQAMDEADYYCQAWDNRAVVFGGGTKLTVLG
**Q.** With B3 as the binder, how does the IC50 [15] read?
**A.** Its IC50 is 19 nM.

**Q.** And the IC50 [16]?
**A.** The IC50 was 4 nM.

B4: A027H08 (scFv)
scFv: QVQLQQSGAEVKKPGSSVKVSCKASGGTFSSYAISWVRQTPGQGLEWMGGIIPIFGAANYAQKFQGRVTITADESTSTAHMELSSLRSEDTAVYYCARGISGGMDVWGKGTLVTVSSGGGSGGGGSGGGGSDIQMTQSPSTLSASIGDRVTITCRASEGIYHWLAWYQQKPGKAPKLLIYKASSLASGAPSRFSGSGSGTDFTLTISSLQPDDFATYYCQQYSNYPLTFGGGTKLEIKR
**Q.** Does B4 bind [17]?
**A.** Result: binds
